Data reported in patent US20240270828A1.

Target: SARS-CoV-2 S (SARS-CoV-2) (UniProt P0DTC2)
Experiment: SPR Biacore T200, hmAb captured, S injected, 1:1 fit

**Q.** With S2P6 (antibody) as the substance, how does the Kd read?
**A.** 32 nM

**Q.** For CV3-25 (antibody), which Kd is on record?
**A.** 13.2 nM

**Q.** How did the Kd turn out when CC40.8 (antibody) was run?
**A.** 6.69 nM
